System: HEK293FT cells transfected with TF library
Test: Screening of TF condensates based on fluorescent puncta
Assay type: cell-based
Conditions: Figure 1B numerical data; TF library screen, one value per transcriptional factor
Method in brief: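 HEK293FT cells were reverse-transfected with Flag- or GAL4-tagged TF plasmids (1.6 μg/ml, PEI). After 60 h, cells were cultured 12 h with or without glucose, then fixed and immunostained with anti-Flag or anti-GAL4 and Alexa 488 secondaries. Fluorescent puncta were imaged over fifty random fields per well by high-content imaging.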

Molecule	Z score of condensed fraction
FOXS1 (protein, UniProt O43638 1-330, looked up) Forkhead box protein S1: MQQQPLPGPGAPTTEPTKPPYSYIALIAMAIQSSPGQRATLSGIYRYIMGRFAFYRHNRPGWQNSIRHNLSLNECFVKVPRDDRKPGKGSYWTLDPDCHDMFEHGSFLRRRRRFTRQTGAEGTRGPAKARRGPLRATSQDPGVPNATTGRQCSFPPELPDPKGLSFGGLVGAMPASMCPATTDGRPRPPMEPKEISTPKPACPGELPVATSSSSCPAFGFPAGFSEAESFNKAPTPVLSPESGIGSSYQCRLQALNFCMGADPGLEHLLASAAPSPAPPTPPGSLRAPLPLPTDHKEPWVAGGFPVQGGSGYPLGLTPCLYRTPGMFFFE	2.025
FOXM1 (protein, UniProt O08696 1-760, looked up) Forkhead box protein M1: MRTSPRRPLILKRRRLPLPVQNAPSETSEEEAKRSPAQPEPAPAQASQEVAESSSCKFPAGIKIINHPTTPNTQVVAIPSNADIQSIITALTAKGKESGTSGPNRFILISSGGPSSHPSQPQAHSSRDSKRAEVITETLGPKPAAKGVPVPKPPGAPPRQRQESYAGGEAAGCTLDNSLTNIQWLGKMSSDGLGPCSVKQELEEKENCHLEQNRVKVEEPSGVSTSWQDSVSERPPYSYMAMIQFAINSTERKRMTLKDIYTWIEDHFPYFKHIAKPGWKNSIRHNLSLHDMFVRETSANGKVSFWTIHPSANRHLTLDQVFKPLEPGSPQSPEHLESQQKRPNPELHRNVTIKTEIPLGARRKMKPLLPRVSSYLEPIQFPVNQSLVLQPSVKVPFRLAASLMSSELARHSKRVRIAPKVLLSSEGIAPLPATEPPKEEKPLLGGEGLLPLLPIQSIKEEEMQPEEDIAHLERPIKVESPPLEEWPSPCASLKEELSNSWEDSSCSPTPKPKKSYCGLKSPTRCVSEMLVTKRREKREVSRSRRKQHLQPPCLDEPDLFFPEDSSTFRPAVELLAESSEPAPHLSCPQEEGGPFKTPIKETLPVSSTPSKSVLSRDPESWRLTPPAKVGGLDFSPVRTPQGAFGLLPDSLGLMELNTTPLKSGPLFDSPRELLNSEPFDLASDPFGSPPPPHVEGPKPGSPELQIPSLSANRSLTEGLVLDTMNDSLSKILLDISFPGLEEDPLGPDNINWSQFIPELR	2.036
FOXE3 (protein, UniProt Q13461 1-319, looked up) Forkhead box protein E3: MAGRSDMDPPAAFSGFPALPAVAPSGPPPSPLAGAEPGREPEEAAAGRGEAAPTPAPGPGRRRRRPLQRGKPPYSYIALIAMALAHAPGRRLTLAAIYRFITERFAFYRDSPRKWQNSIRHNLTLNDCFVKVPREPGNPGKGNYWTLDPAAADMFDNGSFLRRRKRFKRAELPAHAAAAPGPPLPFPYAPYAPAPGPALLVPPPSAGPGPSPPARLFSVDSLVNLQPELAGLGAPEPPCCAAPDAAAAAFPPCAAAASPPLYSQVPDRLVLPATRPGPGPLPAEPLLALAGPAAALGPLSPGEAYLRQPGFASGLERYL	-0.8488
FOXI1 (protein, UniProt Q12951 1-378, looked up) Forkhead box protein I1: MSSFDLPAPSPPRCSPQFPSIGQEPPEMNLYYENFFHPQGVPSPQRPSFEGGGEYGATPNPYLWFNGPTMTPPPYLPGPNASPFLPQAYGVQRPLLPSVSGLGGSDLGWLPIPSQEELMKLVRPPYSYSALIAMAIHGAPDKRLTLSQIYQYVADNFPFYNKSKAGWQNSIRHNLSLNDCFKKVPRDEDDPGKGNYWTLDPNCEKMFDNGNFRRKRKRKSDVSSSTASLALEKTESSLPVDSPKTTEPQDILDGASPGGTTSSPEKRPSPPPSGAPCLNSFLSSMTAYVSGGSPTSHPLVTPGLSPEPSDKTGQNSLTFNSFSPLTNLSNHSGGGDWANPMPTNMLSYGGSVLSQFSPHFYNSVNTSGVLYPREGTEV	-1.1314
FOXR1 (protein, UniProt Q6PIV2 1-292, looked up) Forkhead box protein R1: MGNELFLAFTTSHLPLAEQKLARYKLRIVKPPKLPLEKKPNPDKDGPDYEPNLWMWVNPNIVYPPGKLEVSGRRKREDLTSTLPSSQPPQKEEDASCSEAAGVESLSQSSSKRSPPRKRFAFSPSTWELTEEEEAEDQEDSSSMALPSPHKRAPLQSRRLRQASSQAGRLWSRPPLNYFHLIALALRNSSPCGLNVQQIYSFTRKHFPFFRTAPEGWKNTVRHNLCFRDSFEKVPVSMQGGASTRPRSCLWKLTEEGHRRFAEEARALASTRLESIQQCMSQPDVMPFLFDL	-0.3141
FOXF2 (protein, UniProt O54743 1-446, looked up) Forkhead box protein F2: MSTEGGPPPPPPRPPPAPLRRACSPAPGALQAALMSPPPAATLESTSSSSSSSSASCASSSSNSVSASAGACKSAASSGGAGAGSGGTKKATSGLRRPEKPPYSYIALIVMAIQSSPSKRLTLSEIYQFLQARFPFFRGAYQGWKNSVRHNLSLNECFIKLPKGLGRPGKGHYWTIDPASEFMFEEGSFRRRPRGFRRKCQALKPMYHRVVSGLGFGASLLPQGFDFQAPPSAPLGCHGQGGYGGLDMMPAGYDTGAGAPGHAHPHHLHHHHVPHMSPNPGSTYMASCPVPAGPAGVGAAAGGGGGGGDYGPDSSSSPVPSSPAMASAIECHSPYTSPAAHWSSPGASPYLKQPPALTPSSNPAASAGLHPSMSSYSLEQSYLHQNAREDLSVGLPRYQHHSTPVCDRKDFVLNFNGISSFHPSASGSYYHHHHQSVCQDIKPCVM	0.2019
FOXP4 (protein, UniProt Q8IVH2 1-680, looked up) Forkhead box protein P4: MMVESASETIRSAPSGQNGVGSLSGQADGSSGGATGTTASGTGREVTTGADSNGEMSPAELLHFQQQQALQVARQFLLQQASGLSSPGNNDSKQSASAVQVPVSVAMMSPQMLTPQQMQQILSPPQLQALLQQQQALMLQQLQEYYKKQQEQLHLQLLTQQQAGKPQPKEALGNKQLAFQQQLLQMQQLQQQHLLNLQRQGLVSLQPNQASGPLQTLPQAAVCPTDLPQLWKGEGAPGQPAEDSVKQEGLDLTGTAATATSFAAPPKVSPPLSHHTLPNGQPTVLTSRRDSSSHEETPGSHPLYGHGECKWPGCETLCEDLGQFIKHLNTEHALDDRSTAQCRVQMQVVQQLEIQLAKESERLQAMMAHLHMRPSEPKPFSQPLNPVPGSSSFSKVTVSAADSFPDGLVHPPTSAAAPVTPLRPPGLGSASLHGGGPARRRSSDKFCSPISSELAQNHEFYKNADVRPPFTYASLIRQAILETPDRQLTLNEIYNWFTRMFAYFRRNTATWKNAVRHNLSLHKCFVRVENVKGAVWTVDEREYQKRRPPKMTGSPTLVKNMISGLSYGALNASYQAALAESSFPLLNSPGMLNPGSASSLLPLSHDDVGAPVEPLPSNGSSSPPRLSPPQYSHQVQVKEEPAEAEEDRQPGPPLGAPNPSASGPPEDRDLEEELPGEELS	0.7085
FOXR2 (protein, UniProt Q6PJQ5 1-311, looked up) Forkhead box protein R2: MDLKLKDCEFWYSLHGQVPGLLDWDMRNELFLPCTTDQCSLAEQILAKYRVGVMKPPEMPQKRRPSPDGDGPPCEPNLWMWVDPNILCPLGSQEAPKPSGKEDLTNISPFPQPPQKDEGSNCSEDKVVESLPSSSSEQSPLQKQGIHSPSDFELTEEEAEEPDDNSLQSPEMKCYQSQKLWQINNQEKSWQRPPLNCSHLIALALRNNPHCGLSVQEIYNFTRQHFPFFWTAPDGWKSTIHYNLCFLDSFEKVPDSLKDEDNARPRSCLWKLTKEGHRRFWEETRVLAFAQRERIQECMSQPELLTSLFDL	-0.6086
FOXO3 (protein, UniProt O43524 1-673, looked up) Forkhead box protein O3: MAEAPASPAPLSPLEVELDPEFEPQSRPRSCTWPLQRPELQASPAKPSGETAADSMIPEEEDDEDDEDGGGRAGSAMAIGGGGGSGTLGSGLLLEDSARVLAPGGQDPGSGPATAAGGLSGGTQALLQPQQPLPPPQPGAAGGSGQPRKCSSRRNAWGNLSYADLITRAIESSPDKRLTLSQIYEWMVRCVPYFKDKGDSNSSAGWKNSIRHNLSLHSRFMRVQNEGTGKSSWWIINPDGGKSGKAPRRRAVSMDNSNKYTKSRGRAAKKKAALQTAPESADDSPSQLSKWPGSPTSRSSDELDAWTDFRSRTNSNASTVSGRLSPIMASTELDEVQDDDAPLSPMLYSSSASLSPSVSKPCTVELPRLTDMAGTMNLNDGLTENLMDDLLDNITLPPSQPSPTGGLMQRSSSFPYTTKGSGLGSPTSSFNSTVFGPSSLNSLRQSPMQTIQENKPATFSSMSHYGNQTLQDLLTSDSLSHSDVMMTQSDPLMSQASTAVSAQNSRRNVMLRNDPMMSFAAQPNQGSLVNQNLLHHQHQTQGALGGSRALSNSVSNMGLSESSSLGSAKHQQQSPVSQSMQTLSDSLSGSSLYSTSANLPVMGHEKFPSDLDLDMFNGSLECDMESIIRSELMDADGLDFNFDSLISTQNVVGLNVGNFTGAKQASSQSWVPG	-0.5303
AIOLOS (protein, UniProt Q9UKT9 1-509, looked up) Zinc finger protein Aiolos: MEDIQTNAELKSTQEQSVPAESAAVLNDYSLTKSHEMENVDSGEGPANEDEDIGDDSMKVKDEYSERDENVLKSEPMGNAEEPEIPYSYSREYNEYENIKLERHVVSFDSSRPTSGKMNCDVCGLSCISFNVLMVHKRSHTGERPFQCNQCGASFTQKGNLLRHIKLHTGEKPFKCHLCNYACQRRDALTGHLRTHSVEKPYKCEFCGRSYKQRSSLEEHKERCRTFLQSTDPGDTASAEARHIKAEMGSERALVLDRLASNVAKRKSSMPQKFIGEKRHCFDVNYNSSYMYEKESELIQTRMMDQAINNAISYLGAEALRPLVQTPPAPTSEMVPVISSMYPIALTRAEMSNGAPQELEKKSIHLPEKSVPSERGLSPNNSGHDSTDTDSNHEERQNHIYQQNHMVLSRARNGMPLLKEVPRSYELLKPPPICPRDSVKVINKEGEVMDVYRCDHCRVLFLDYVMFTIHMGCHGFRDPFECNMCGYRSHDRYEFSSHIARGEHRALLK	0.5203
FOXI2 (protein, UniProt Q6ZQN5 1-318, looked up) Forkhead box protein I2: MATYCDDLGPSSAPPGQAQATAHPPGYEPGDLGAVGGGPLLWVNAPALSPKSYASGPGPAPPYAAPSYGAPGPLLGAPGGLAGADLAWLSLSGQQELLRLVRPPYSYSALIAMAIQSAPLRKLTLSQIYQYVAGNFPFYKRSKAGWQNSIRHNLSLNDCFKKVPRDEDDPGKGNYWTLDPNCEKMFDNGNFRRKRKRRAEASAAVRSGARSVGGAEAPALEPPSAACLDLQASPSPSAPEAATCFSGFASAMSALAGGLGTFPGGLAGDFSFGRRPPTVATHAPQTLNPSPGFAPGHQTAAAGFRLSHLLYSREGTEV	-0.5391
FOXN2 (protein, UniProt P32314 1-431, looked up) Forkhead box protein N2: MGPVIGMTPDKRAETPGAEKIAGLSQIYKMGSLPEAVDAARPKATLVDSESADDELTNLNWLHESTNLLTNFSLGSEGLPIVSPLYDIEGDDVPSFGPACYQNPEKKSATSKPPYSFSLLIYMAIEHSPNKCLPVKEIYSWILDHFPYFATAPTGWKNSVRHNLSLNKCFQKVERSHGKVNGKGSLWCVDPEYKPNLIQALKKQPFSSASSQNGSLSPHYLSSVIKQNQVRNLKESDIDAAAAMMLLNTSIEQGILECEKPLPLKTALQKKRSYGNAFHHPSAVRLQESDSLATSIDPKEDHNYSASSMAAQRCASRSSVSSLSSVDEVYEFIPKNSHVGSDGSEGFHSEEDTDVDYEDDPLGDSGYASQPCAKISEKGQSGKKMRKQTCQEIDEELKEAAGSLLHLAGIRTCLGSLISTAKTQNQKQRKK	-0.402
